Reference: paper PMC11574021, “CEP192 localises mitotic Aurora-A activity by priming its interaction with TPX2” (The EMBO Journal, 2024)
Changes are numbered by the printed parent chain. In names and notes the source's numbering stands. Several values for one entry are separate records, joined by “and”; a condition that tells them apart may be missing. Identical values can stand only once. Where no end group is shown, it is not given here. FAM = 5(6)-carboxyfluorescein

B1: human CEP192 468–533 (domain or fragment, UniProt Q8TEP8 468-533, looked up)
chain: PQSVVYQNEEGRWVTDLAYYTSFNSKQNLNVSLSDEMNEDFRSGSEAFDLIAQDEEEFNKEHQFIQ
notes: also called CEP192_(506-527_F); source: E. coli B834 RIL, purified (HisTrap, TEV cleavage, SEC); for crystallisation co-expressed with Aurora-A^M7KD and co-purified; not shown: His6, N-terminal, cleaved; SUMO, N-terminal, cleaved
B2: Aurora-A^CAKD (Aurora-A kinase domain, aa 122–403 C290A, C393A), unphosphorylated (domain or fragment, human, UniProt O14965 122-403, looked up)
chain: ESKKRQWALEDFEIGRPLGKGKFGNVYLAREKQSKFILALKVLFKAQLEKAGVEHQLRREVEIQSHLRHPNILRLYGYFHDATRVYLILEYAPLGTVYRELQKLSKFDEQRTATYITELANALSYCHSKRVIHRDIKPENLLLGSAGELKIADFGWSVHAPSSRRTTLAGTLDYLPPEMIEGRMHDEKVDLWSLGVLCYEFLVGKPPFEANTYQETYKRISRVEFTFPDFVTEGARDLISRLLKHNPSQRPMLREVLEHPWITANSSKPSNAQNKESASKQS
notes: Aurora-A kinase domain, human, residues 122-403, variant lacking surface cysteines; also called Aurora-A 122–403 C290A C393A; unphosphorylated Aurora-A^CAKD; source: E. coli RIL, co-expressed with lambda phosphatase, purified (HisTrap, TEV cleavage, SEC); not shown: His6, N-terminal, cleaved
B3: human CEP192 468–533 Y487A/F490A (domain or fragment, UniProt Q8TEP8 468-533, looked up)
chain: B1 chain with Y20A, F23A
notes: source: E. coli B834 RIL, purified (HisTrap, TEV cleavage, SEC); not shown: His6, N-terminal, cleaved; SUMO, N-terminal, cleaved
B4: FAM-CEP192 501–533 (peptide, UniProt Q8TEP8 501-533, looked up)
peptide: {FAM}-SDEMNEDFRSGSEAFDLIAQDEEEFNKEHQFIQ
notes: Made on Rink amide resin and labelled on resin after synthesis, so N-terminal label and C-terminal amide are likely; MS data of the peptides are in the source data; source: synthetic peptide
B5: CEP192 405-649: GST-tagged CEP192 fragment 405-649 (protein, UniProt Q8TEP8 405-649, looked up, fragment)
chain: HMDGCLDTETPTVSIQENVDVASLKPISDSGINFTDAIWSPTCERRTCECHESIEKNKDKTDLPQSVVYQNEEGRWVTDLAYYTSFNSKQNLNVSLSDEMNEDFRSGSEAFDLIAQDEEEFNKEHQFIQEENIDAHNTSVALGDTSWGATINYSLLRKSRSTSDLDKDDASYLRLSLGEFFAQRSEALGCLGGGNNVKRPSFGYFIRSPEKREPIALIRKSDVSRGNLEKEMAHLNHDLYSGDLN
modifications: GST tag

Key:
Aurora-A = conditions: fluorescence binding; ref Park et al. (2023) Figure 3B; cited from earlier work
Source text: page 11: cycle control) in these cell lines is still useful. […] As for combined depletion of CEP192 and TPX2, this was very toxic in both U251 and RPE1 cells, unsurprising given that both proteins are essential for proliferation.

[1] = target: B2; experiment: fluorescence polarisation; competition: 25 μM Aurora-A kinase domain preincubated with 100 nM FAM-TACC3 522-536, CEP192 competitor serially diluted; 25 mM HEPES pH 7.5, 150 mM NaCl, 2 mM DTT, 5 mM MgCl2, 0.01% Tween 20; conditions: both partners purified
[2] = target: B2; experiment: ITC; 250 μM Aurora-A in the syringe, 25 μM CEP192 construct in the cell; 25 °C; 20 mM tris pH 7.5, 200 mM NaCl, 10% glycerol, 5 mM MgCl2; conditions: both partners purified
[3] = target: T1, phosphorylated Aurora-A^CAKD (Aurora-A 122–403 C290A C393A, not co-expressed with lambda phosphatase) (human, UniProt O14965 122-403, C290A | C393A, phosphorylated (sites of this preparation not printed in the text shown)); experiment: as above; conditions: both partners purified
T1 construct: Aurora-A kinase domain, human, residues 122-403; also called phosphorylated kinase; Aurora-A 122–403 C290A C393A phosphorylated protein; source: E. coli B834, not co-expressed with lambda phosphatase, purified (HisTrap, TEV cleavage, SEC); not shown: His6, N-terminal, cleaved
T1 sequence (looked up): B2 chain

[4] = target: B2; experiment: fluorescence polarisation; competition: 10 μM unphosphorylated Aurora-A^CAKD preincubated with 100 nM FAM-TPX2 7-43, CEP192 competitor serially diluted; 25 mM HEPES pH 7.5, 150 mM NaCl, 2 mM DTT, 5 mM MgCl2, 0.01% Tween 20; conditions: both partners purified
[5] = target: T1, phosphorylated Aurora-A^CAKD (Aurora-A …); experiment: cell-based or functional assay
human CEP192 468–533 = target: B1; experiment: ITC; 250 μM Aurora-A in the syringe, 25 μM CEP192 construct in the cell; 25 °C; 20 mM tris pH 7.5, 200 mM NaCl, 10% glycerol, 5 mM MgCl2; conditions: both partners purified
[6] = target: B3; experiment: as above; conditions: both partners purified
[7] = target: T2, Aurora-A^CAKD (Aurora-A kinase domain, aa 122–403 C290A, C393A), unphosphorylated (human, UniProt O14965 122-403, C290A | C393A); experiment: FP; competition with FAM-TPX2 7-43
T2 sequence: B2 chain

[8] = target: B2; experiment: fluorescence polarisation; direct fluorescence anisotropy: Aurora-A diluted across the plate, 50 nM tracer FAM-CEP192 501–533; 25 mM HEPES pH 7.5, 150 mM NaCl, 2 mM DTT, 5 mM MgCl2, 0.01% Tween 20; 1 h at room temperature; conditions: both partners purified
[9] = target: T1, phosphorylated Aurora-A^CAKD (Aurora-A …); experiment: as above; conditions: both partners purified
[10] = target: T3, Aurora-A^M7KD (Aurora-A 122–403 D274N C290A C393A N332A Q335A T347A D350A) (human, UniProt O14965 122-403, D274N | C290A | C393A | N332A | Q335A | T347A | D350A); experiment: as above; conditions: both partners purified
T3 construct: Aurora-A kinase domain, human, residues 122-403, with crystal-contact mutations in the C-lobe; also called Aurora-A^M7KD-D; Aurora^M7KD; source: E. coli, purified; not shown: His6, N-terminal, cleaved
T3 sequence (looked up): B2 chain with D153N, N211A, Q214A, T226A, D229A

[11] = test system: His-tagged Aurora-A 122-403 or full-length (1-403); experiment: Pull-down of Aurora-A by GST-tagged CEP192; type: binding, human; conditions: Aurora-A 122-403 and 1-403, western blot
Method: GST-tagged CEP192 constructs were overexpressed in LB and purified on glutathione resin using standard methods. Tagged proteins were eluted in 100 mM TRIS pH 7.5, 500 mM NaCl, 1 mM DTT, 10% Glycerol, 10 mM reduced glutathione, before dialysis in elution buffer without glutathione and storage at −80 °C. About 250 μg of GST-tagged CEP192 constructs or GST as a control were immobilised on 50 μl of glutathione resin (GE healthcare) per sample equilibrated in pull-down buffer (50 mM tris pH 7.5, 300 mM NaCl, 1 mM DTT, 5 mM magnesium chloride, 10% glycerol, 0.1% Tween 20). After 60 min of immobilisation the beads were washed three times in 900 μl of binding buffer to remove any excess protein. About 35 μg of His-tagged Aurora-A 122–403 or full-length protein (1–403) was added to samples of immobilised truncation or GST control. These were left to bind for 60 min on the roller. The beads were pelleted and washed three times in 900 μl of binding buffer. The resin was resuspended in 100 μl of SDS loading dye. After separation on an SDS-PAGE gel, these were transformed onto nitrocellulose membranes before probing with anti-GST and anti-His primary antibodies.

FAM-CEP192 506-536: labelled peptide of Park et al 2023
Kd (Aurora-A): 700 nM

B1
IC50 [1]: 5000 nM
Kd [2]: 80.6 nM
Kd [3]: 134 nM
IC50 [4]: 3700 nM
ADP-Glo, 10 nM phosphorylated Aurora-A^CAKD with kemptide: IC50 of partial inhibition of kinase activity [5]: 18 nM

B2
stoichiometry N (human CEP192 468–533): 0.85
stoichiometry N [6]: 0.84

B3
IC50 [7]: 14100 nM
Kd [2]: 2000 nM

B4
Kd [8]: 420 nM and 1170 nM
Kd [9]: 370 nM
Kd [10]: 1250 nM

B5
co-precipitation of Aurora-A [11]: able to interact significantly with Aurora
